Measured values as given in patent US20190240330A1.

Columns and labels:
[1] = target: human epidermal growth factor receptor 1 (EGFR1), on the surface of HSC-2 and FaDu tumor cells (human) (UniProt P00533); experiment: flow cytometry, AlexaFluor488-labeled compound 5 ug/ml, 3 h at +37 C, HSC-2 cells; cell surface bound plus internalized, normalized to degree of labeling
[2] = target: human epidermal growth factor receptor 1 (EGFR1), on the surface of HSC-2 and FaDu tumor cells (human) (UniProt P00533); experiment: tritium-labeled compound 5 ug/ml, 3 h at +37 C, FaDu cells, scintillation counting of cell lysate; internalized plus cell surface bound; mean +/- S.D. of three
[3] = target: human epidermal growth factor receptor 1 (EGFR1), on the surface of HSC-2 and FaDu tumor cells (human) (UniProt P00533); experiment: flow cytometry, AlexaFluor488-labeled compound 5 ug/ml, 3 h at +37 C, FaDu cells; cell surface bound plus internalized, normalized to degree of labeling

| Normalized mean fluorescence intensity [1] | % internalized/100000 cells [2] | Normalized mean fluorescence intensity [3] | Substance |
| --- | --- | --- | --- |
| 700 | 0.01% |  | Control-mAb (omalizumab, anti-IgE) (antibody) |
| 823 |  | 443 | Control-F(ab')2 (F(ab')2 fragment of omalizumab) |
| 1160 |  | 970 | Control-Fab (Fab fragment of omalizumab) |
